This note sets out measurements from patent US20210395322A1 (OSR, published 2021).

The target in this experiment is T1, Noggin (UniProt Q13253 28-232, limits assumed).
T1 sequence (looked up): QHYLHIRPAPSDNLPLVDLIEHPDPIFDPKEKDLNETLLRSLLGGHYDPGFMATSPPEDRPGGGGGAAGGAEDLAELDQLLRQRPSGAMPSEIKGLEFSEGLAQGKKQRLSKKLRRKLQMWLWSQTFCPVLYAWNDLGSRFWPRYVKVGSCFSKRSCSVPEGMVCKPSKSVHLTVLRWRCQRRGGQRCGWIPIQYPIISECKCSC
The experiment can be described thus: size-exclusion chromatography of the AB204 and Noggin mixture.

B1: AB204 (ligand)
chain: MQAKHKQRKRLKSSCKRHPLYVDFSDVGWNDWIIAPSGYHANYCDGECPFPLADHLNSTNHAIVQTLVNSVNSKIPKACCVPTKLRPMSMLYYDDGQNIIKKDIQNMIVEECGCS
notes: also called Noggin-insensitive chimera AB204
Turning to B1, the binding result is listed as “no binding”.
